Assay results: patent US20080300188A1 (GENEXINE, published 2008)

Columns and labels:
[1] = molecular target: T1, FcγRI (R&D, cat# BAF1257) (UniProt P12314 16-288, limits assumed); assay: ELISA, sample coated on strip, FcγRI added, detected with biotinylated anti-FcγRI and streptavidin-HRP
T1 construct: Bought soluble reagent, added at 2 ug/ml; also called FcγR1
Description: (§1) To investigate whether hFc-5-fused proteins bind to FcγRI and C1q, MabThera® (Rituximab, Roche), hIgG1 (Calbiochem, Cat#, 400120), Enbrel® (etanercept, Amgen), EPO-hFc-5, G-CSF-hFc-5 and p40N303Q-hFc-5 were serially diluted (from 2 ug/ml to 16 ng/ml with 2-fold) and coated on the 8 well strip (COSTAR, New York) overnight at 4° C. To make a standard curve, FcγRI (R&D, cat# BAF1257) or C1q (AbD serotech, Cat#. 2221-5504) were also serially diluted (from 2 ug/ml to 32 ng/ml with 2-fold) and coated on the 8 well strip (COSTAR, New York) overnight at 4° C. After washing each strip of samples with washing buffer (PBS containing 0.05% tween) and blocking with 10% FBS in PBS for 1 hour at RT, FcγRI or C1q were added into each well at 2 ug/ml following incubation for 2 hours at room temperature (RT). All strips were washed with washing buffer. For C1q binding test, HRP conjugated anti-C1q (AbD serotech, cat#. 2221-5004P) was added into each well at 2.5 ug/ml following 30 min incubation at RT under dark condition. For FcγRI binding test, biotinylated anti-FcγRI (R&D, cat#. 1257-FC) was added into each well at 2 ug/ml following 1 hour incubation at RT. After washing them with washing buffer, Streptavidine-HRP (BD, cat#. 554066) diluted with 3,000 fold was added into each strip following 30 minute incubation at RT under dark condition. […]

[2] = molecular target: T2, C1q (AbD serotech, Cat#. 2221-5504) (UniProt P02745 23-245; P02746 28-253; P02747 29-245); assay: ELISA, sample coated on strip, C1q added, detected with HRP conjugated anti-C1q
T2 construct: Bought C1q, added at 2 ug/ml
Description: as §1

T2 sequence (P02745 23-245 limits assumed, chain 1 of 3): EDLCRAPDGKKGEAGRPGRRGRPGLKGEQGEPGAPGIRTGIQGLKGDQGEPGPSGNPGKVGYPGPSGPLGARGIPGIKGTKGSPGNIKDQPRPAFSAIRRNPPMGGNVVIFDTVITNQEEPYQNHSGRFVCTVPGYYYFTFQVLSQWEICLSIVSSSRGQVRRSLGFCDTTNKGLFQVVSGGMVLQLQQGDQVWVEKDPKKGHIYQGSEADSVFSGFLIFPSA
T2 sequence (P02746 28-253 limits assumed, chain 2 of 3): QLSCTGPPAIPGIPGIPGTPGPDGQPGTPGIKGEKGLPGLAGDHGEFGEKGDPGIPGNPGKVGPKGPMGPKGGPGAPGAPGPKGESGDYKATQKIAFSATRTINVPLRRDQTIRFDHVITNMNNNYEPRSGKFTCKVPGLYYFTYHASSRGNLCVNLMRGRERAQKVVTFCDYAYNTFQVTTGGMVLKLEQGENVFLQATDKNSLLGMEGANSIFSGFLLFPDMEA
T2 sequence (P02747 29-245 limits assumed, chain 3 of 3): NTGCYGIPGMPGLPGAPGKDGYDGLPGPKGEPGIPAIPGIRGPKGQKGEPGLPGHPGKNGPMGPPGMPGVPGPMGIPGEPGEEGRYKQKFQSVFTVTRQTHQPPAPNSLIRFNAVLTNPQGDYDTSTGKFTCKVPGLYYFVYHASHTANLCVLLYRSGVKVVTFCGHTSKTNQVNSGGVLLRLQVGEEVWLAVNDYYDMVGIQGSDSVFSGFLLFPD
T1 sequence (P12314 16-288 limits assumed): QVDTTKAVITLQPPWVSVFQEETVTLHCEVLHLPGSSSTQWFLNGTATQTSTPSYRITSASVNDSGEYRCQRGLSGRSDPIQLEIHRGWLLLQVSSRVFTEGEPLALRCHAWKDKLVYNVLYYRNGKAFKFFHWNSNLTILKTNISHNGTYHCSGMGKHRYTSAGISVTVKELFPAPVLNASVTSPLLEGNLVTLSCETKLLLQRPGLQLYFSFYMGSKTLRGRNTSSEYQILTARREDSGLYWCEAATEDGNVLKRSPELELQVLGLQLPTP

binding result [1]: no binding
binding result [2]: no binding
B1: p40N303Q-hFc-5 (Fc fusion)
chain: IWELKKDVYVVELDWYPDAPGEMVVLTCDTPEEDGITWTLDQSSEVLGSGKTLTIQVKEFGDAGQYTCHKGGEVLSHSLLLLHKKEDGIWSTDILKDQKEPKNKTFLRCEAKNYSGRFTCWWLTTISTDLTFSVKSSRGSSDPQGVTCGAATLSAERVRGDNKEYEYSVECQEDSACPAAEESLPIEVMVDAVHKLKYENYTSSFFIRDIIKPDPPKNLQLKPLKNSRQVEVSWEYPDTWSTPHSYFSLTFCVQVQGKSKREKKDRVFTDKTSATVICRKQASISVRAQDRYYSSSWSEWASVPCSRNTGRGGEEKKKEKEKEEQEERETKTPECPSHTQPLGVFLFPPKPKDTLMISRTPEVTCVVVDVSQEDPEVQFNWYVDGVEVHNAKTKPREEQFNSTYRVVSVLTVLHQDWLNGKEYKCKVSNKGLPSSIEKTISKAKGQPREPQVYTLPPSQEEMTKNQVSLTCLVKGFYPSDIAVEWESNGQPENNYKTTPPVLDSDGSFFLYSRLTVDKSRWQEGNVFSCSVMHEALHNHYTQKSLSLSLGK
notes: also called human p40N303Q-hFc-5
